B1: SPAM1-AFLK: C-terminally truncated human PH20, precursor 470 aa (SEQ ID NO:30), mature 435 aa (SEQ ID NO:82) (protein, listed as Homo sapiens)
chain: MGVLKFKHIFFRSFVKSSGVSQIVFTFLLIPCCLTLNFRAPPVIPNVPFLWAWNAPSEFCLGKFDEPLDMSLFSFIGSPRINATGQGVTIFYVDRLGYYPYIDSITGVTVNGGIPQKISLQDHLDKAKKDITFYMPVDNLGMAVIDWEEWRPTWARNWKPKDVYKNRSIELVQQQNVQLSLTEATEKAKQEFEKAGKDFLVETIKLGKLLRPNHLWGYYLFPDCYNHHYKKPGYNGSCFNVEIKRNDDLSWLWNESTALYPSIYLNTQQSPVAATLYVRNRVREAIRVSKIPDAKSPLPVFAYTRIVFTDQVLKFLSQDELVYTFGETVALGASGIVIWGTLSIMRSMKSCLLLDNYMETILNPYIINVTLAAKMCSQVLCQEQGVCIRKNWNSSDYLHLNPDNFAIQLEKGGKFTVRGKPTLEDLEQFSEKFYCSCYSTLSCKEKADVKDTDAVDVCIADGVCIDAFLK
modifications: HuPH20 precursor 1-470
B2: SPAM1-DAFL: C-terminally truncated human PH20, precursor 469 aa (SEQ ID NO:31), mature 434 aa (SEQ ID NO:83) (protein, listed as Homo sapiens)
chain 1: MGVLKFKHIFFRSFVKSSGVSQIVFTFLLIPCCLTLNFRAPPVIPNVPFLWAWNAPSEFCLGKFDEPLDMSLFSFIGSPRINATGQGVTIFYVDRLGYYPYIDSITGVTVNGGIPQKISLQDHLDKAKKDITFYMPVDNLGMAVIDWEEWRPTWARNWKPKDVYKNRSIELVQQQNVQLSLTEATEKAKQEFEKAGKDFLVETIKLGKLLRPNHLWGYYLFPDCYNHHYKKPGYNGSCFNVEIKRNDDLSWLWNESTALYPSIYLNTQQSPVAATLYVRNRVREAIRVSKIPDAKSPLPVFAYTRIVFTDQVLKFLSQDELVYTFGETVALGASGIVIWGTLSIMRSMKSCLLLDNYMETILNPYIINVTLAAKMCSQVLCQEQGVCIRKNWNSSDYLHLNPDNFAIQLEKGGKFTVRGKPTLEDLEQFSEKFYCSCYSTLSCKEKADVKDTDAVDVCIADGVCIDAFL
chain 2: LNFRAPPVIPNVPFLWAWNAPSEFCLGKFDEPLDMSLFSFIGSPRINATGQGVTIFYVDRLGYYPYIDSITGVTVNGGIPQKISLQDHLDKAKKDITFYMPVDNLGMAVIDWEEWRPTWARNWKPKDVYKNRSIELVQQQNVQLSLTEATEKAKQEFEKAGKDFLVETIKLGKLLRPNHLWGYYLFPDCYNHHYKKPGYNGSCFNVEIKRNDDLSWLWNESTALYPSIYLNTQQSPVAATLYVRNRVREAIRVSKIPDAKSPLPVFAYTRIVFTDQVLKFLSQDELVYTFGETVALGASGIVIWGTLSIMRSMKSCLLLDNYMETILNPYIINVTLAAKMCSQVLCQEQGVCIRKNWNSSDYLHLNPDNFAIQLEKGGKFTVRGKPTLEDLEQFSEKFYCSCYSTLSCKEKADVKDTDAVDVCIADGVCIDAFL
modifications: HuPH20 precursor 1-469; Mature HuPH20 36-469

Key:
[1] = Microtiter hyaluronidase activity assay with biotinylated-hyaluronic acid; format: biochemical; details: Table 6, 72 hour post transfection supernatant
Protocol: In Example 4, the hyaluronidase activity of truncated human PH20 hyaluronidase is determined using biotinylated hyaluronic acid. The free carboxyl groups on the glucuronic acid residues of hyaluronic acid are biotinylated, and the biotinylated hyaluronic acid substrate is covalently coupled to a microtiter plate. Following incubation with hyaluronidase, the residual biotinylated hyaluronic acid substrate is detected using an avidin-peroxidase reaction, and compared to that obtained following reaction with hyaluronidase standards of known activity. […] The sensitivity permits rapid measurement of hyaluronidase activity from cultured cells and biological samples with an inter-assay variation of less than 10%.
In this example, the human PH20 hyaluronidase carboxy-terminus deletion mutants were tested for their PH20 hyaluronidase activity using a microtiter assay with biotinylated-hyaluronic acid (biotinylated-HA or bHA). The human PH20 hyaluronidase carboxy-terminus deletion mutants were tested for hyaluronidase activity at both pH 7.4 and pH 5.5.
In short, a 4×BH 96-well plate was coated with biotinylated-HA (1.1 MDa). The 72 hour post transfection supernatant from cells transfected with human PH20 hyaluronidase carboxy-terminus deletion mutants was diluted in buffer at either pH 7.4 or pH 5.5 and added to individual wells of the plate and allowed to incubate at 37° C. for 90 minutes. The reaction was terminated by addition of 4M guanidine HCl. The wells were washed 4× with Phosphate Buffered Saline with Tween20 (PBST) to remove any digested biotinylated-HA followed by addition of streptavidin-HRP for 1 hour at room temperature. The wells were washed 4× with PBST and the plate was developed with TMB. The plate was read at 450 nm using an ELISA plate reader. Hyaluronidase activity (in Units/mL) was determined by interpolating the measured absorbance at 450 nm with a hyaluronidase reference standard curve. Full length mature human PH20 hyaluronidase and untransfected CHO cells were used as positive and negative controls.

[2] = tested on: CHO-S cells; assay: Western blot analysis of PH20 expression in media and cells after transient expression; format: cell-based, Chinese Hamster; details: media versus cells
Protocol: The mutant PH20-HZ24 plasmids generated in Example 1 were transiently […] into CHO—S cells (derived from Chinese Hamster Ovary CHO K1 cells) using GeneJuice® (Novagen) according to the manufacturer's instructions. In short, the CHO—S cells were grown in CD CHO medium supplemented with L-glutamine. Prior to transfection, the CHO—S cells were plated in 6-well plates, with approximately 5×10^5 cells per well, and grown overnight at 37° C. with 5% CO2. The medium was then removed and the CHO—S cells were washed 2 times with 1 mL serum-free medium. GeneJuice® was mixed with serum-free media followed by the addition of 2 μg mutant-HZ24 DNA. After incubating at room temperature for 5-15 minutes, the GeneJuice®/DNA mixture was added dropwise to an individual well containing the washed CHO—S cells. After 4 hours, the medium was replaced with 1 mL CD-CHO medium supplemented with L-glutamine and the cells were incubated for 72 hours at 37° C. with 5% CO2. Following expression, the media and cells were harvested separately.
The mutant PH20-HZ24 plasmids generated in Example 1 were transiently […] into CHO—S cells using GeneJuice® (Novagen) according to the manufacturer's instructions. […]
In this example, following transient expression, as described in Example 2 above, the media and cells were harvested separately and analyzed for PH20 expression and solublility by Western blot analysis. Solubility of the C-terminus truncation mutants was determined by examining whether the expressed protein was present in the growth media or in the cells. […] Cells expressing these mutants were treated with phosphoinositol-phospholipase C (PI-PLC), which cleaves the GPI-anchor allowing the release of soluble protein into the media, and the presence of PH20 in the resulting media and cells was determined by Western blot analysis.
Non-reduced samples were run on a 4-20% Tris-Glycine gel and transferred to PVDF membrane using iBlot (Invitrogen). For the Western blot, rabbit anti-PH20 IgG (0.5 μg/mL) was used as the primary antibody and HRP-conjugated goat anti-rabbit IgG (0.1 ng/mL, Cat#DC03L, EMD) was used as the secondary antibody. Evidence of expression is determined by a band at approximately 66 kDa, corresponding to recombinant human PH20 hyaluronidase.

| Molecule | pH 5.5 Activity [1] | pH 7.4 Activity [1] | Expressed in Media [2] |
| --- | --- | --- | --- |
| B1 | 2.925 Units/ml | 3.204 Units/ml | YES |
| B2 | 2.2365 Units/ml | 2.3895 Units/ml | YES |

— patent publication US9284543B2, “Neutral active soluble truncated PH20 polypeptides and uses thereof” (Halozyme, Inc., priority 2008, dated 2016)
